Measurements: patent US20160279215A1, “NOVEL PEPTIDES AND COMBINATION OF PEPTIDES FOR USE IN IMMUNOTHERAPY AGAINST VARIOUS TUMORS” (immatics biotechnologies GmbH, priority 2015, published 2016)

B1: KLQEKIQEL (peptide)
peptide: KLQEKIQEL
B2: GLLPSAESIKL (peptide)
peptide: GLLPSAESIKL
B3: NLLDENVCL (peptide)
peptide: NLLDENVCL
B4: SLVSWQLLL (peptide)
peptide: SLVSWQLLL
B5: GLDAFRIFL (peptide)
peptide: GLDAFRIFL
B6: VLLNEILEQV (peptide)
peptide: VLLNEILEQV
B7: GLLDCPIFL (peptide)
peptide: GLLDCPIFL

Key:
[1] = test system: CD8+ T cells of healthy HLA-A*02 donors; assay: In vitro immunogenicity: T-cell priming with aAPCs loaded with peptide/MHC and anti-CD28, pMHC multimer readout; type: cell-based, human; settings: in vitro immunogenicity, HLA-A*02 restricted peptides; percentage of positive wells among evaluable
Text: In order to obtain information regarding the immunogenicity of the TUMAPs of the present invention, the inventors performed investigations using an in vitro T-cell priming assay based on repeated stimulations of CD8+ T cells with artificial antigen presenting cells (aAPCs) loaded with peptide/MHC complexes and anti-CD28 antibody.
In order to perform in vitro stimulations by artificial antigen presenting cells loaded with peptide-MHC complex (pMHC) and anti-CD28 antibody, the inventors first isolated CD8+ T cells from fresh HLA-A*02 leukapheresis products via positive selection using CD8 microbeads (Miltenyi Biotec, Bergisch-Gladbach, Germany) of healthy donors obtained from the University clinics Mannheim, Germany, after informed consent. PBMCs and isolated CD8+ lymphocytes were incubated in T-cell medium (TCM) until use consisting of RPMI-Glutamax (Invitrogen, Karlsruhe, Germany) supplemented with 10% heat inactivated human AB serum (PAN-Biotech, Aidenbach, Germany), 100 U/ml Penicillin/100 μg/ml Streptomycin (Cambrex, Cologne, Germany), 1 mM sodium pyruvate (CC Pro, Oberdorla, Germany), 20 μg/ml Gentamycin (Cambrex). 2.5 ng/ml IL-7 (PromoCell, Heidelberg, Germany) and 10 U/ml IL-2 (Novartis Pharma, Nürnberg, Germany) were also added to the TCM at this step. Generation of pMHC/anti-CD28 coated beads, T-cell stimulations and readout was performed in a highly defined in vitro system using four different pMHC molecules per stimulation condition and 8 different pMHC molecules per readout condition.
The purified co-stimulatory mouse IgG2a anti human CD28 Ab 9.3 (Jung et al., 1987) was chemically biotinylated using Sulfo-N-hydroxysuccinimidobiotin as recommended by the manufacturer (Perbio, Bonn, Germany). Beads used were 5.6 μm diameter streptavidin coated polystyrene particles (Bangs Laboratories, Illinois, USA).
pMHC used for positive and negative control stimulations were A*0201/MLA-001 (peptide […] (SEQ ID NO. 289) from modified Melan-A/MART-1) and A*0201/DDX5-001 ([…] from DDX5, SEQ ID NO. 290), respectively.
800.000 beads/200 μl were coated in 96-well plates in the presence of 4×12.5 ng different biotin-pMHC, washed and 600 ng biotin anti-CD28 were added subsequently in a volume of 200 μl. Stimulations were initiated in 96-well plates by co-incubating […] CD8+ T cells with 2×10^5 washed coated beads in 200 μl TCM supplemented with 5 ng/ml IL-12 (PromoCell) for 3 days at 37° C. Half of the medium was then exchanged by fresh TCM supplemented with 80 U/ml IL-2 and incubating was continued for 4 days at 37° C. This stimulation cycle was performed for a total of three times. For the pMHC multimer readout using 8 different pMHC molecules per condition, a two-dimensional combinatorial coding approach was used as previously described (Andersen et al., 2012) with minor modifications encompassing coupling to 5 different fluorochromes. Finally, multimeric analyses were performed by staining the cells with Live/dead near IR dye (Invitrogen, Karlsruhe, Germany), CD8-FITC antibody clone SK1 (BD, Heidelberg, Germany) and fluorescent pMHC multimers. For analysis, a BD LSRII SORP cytometer equipped with appropriate lasers and filters was used. Peptide specific cells were calculated as percentage of total CD8+ cells. Evaluation of multimeric analysis was done using the FlowJo software (Tree Star, Oreg., USA). In vitro priming of specific multimer+ CD8+ lymphocytes was detected by comparing to negative control stimulations.
Exemplary flow cytometry results after TUMAP-specific multimer staining for 15 peptides of the invention are shown in FIGS. 3 and 6 together with corresponding negative controls.

[2] = target: T1, HLA-A*02:01 (Homo sapiens, UniProt P04439, D140Y/D185E/D98H/E176V/E277Q/G131W/G231S/I119V/I121R/I166T/I218V/L300P/L318F/N151K/N90K/P208A/P217A/Q86G/Q94H/R138H/R169H/T345S); assay: MHC binding assay: UV-ligand exchange with β2m ELISA (peptide exchange yield); settings: binding to HLA-A*02:01 evaluated by peptide exchange yield (UV-ligand exchange, β2m ELISA)
T1 construct: made in house
Procedure, shortened: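 Binding capacity is expressed as the yield of UV-mediated ligand exchange, reflecting how well each peptide stabilizes peptide-receptive MHC. Stabilized complexes are read out by anti-β2m HRP ELISA (450 nm) after streptavidin capture, with refolded MLA-001 monomer standards for quantitation.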

[3] = target: T2, HLA-A*02:01 (human); assay: UV ligand-exchange ELISA (anti-b2m); ++++ = exchange yield >=75%
T2 construct: MHC monomers captured on streptavidin plates; the UV-sensitive peptide is cleaved and exchanged with the test peptide; also called peptide-receptive MHC molecules; MHC class I
Text: Candidate peptides for T cell based therapies according to the present invention were further tested for their MHC binding capacity (affinity). The individual peptide-MHC complexes were produced by UV-ligand exchange, where a UV-sensitive peptide is cleaved upon UV-irradiation, and exchanged with the peptide of interest as analyzed. Only peptide candidates that can effectively bind and stabilize the peptide-receptive MHC molecules prevent dissociation of the MHC complexes. To determine the yield of the exchange reaction, an ELISA was performed based on the detection of the light chain (β2m) of stabilized MHC complexes. The assay was performed as generally described in Rodenko et al. (Rodenko et al., 2006).
96 well MAXISorp plates (NUNC) were coated over night with 2 ug/ml streptavidin in PBS at room temperature, washed 4× and blocked for 1 h at 37° C. in 2% BSA containing blocking buffer. Refolded HLA-A*02:01/MLA-001 monomers served as standards, covering the range of 15-500 ng/ml. Peptide-MHC monomers of the UV-exchange reaction were diluted 100 fold in blocking buffer. Samples were incubated for 1 h at 37° C., washed four times, incubated with 2 ug/ml HRP conjugated anti-β2m for 1 h at 37° C., washed again and detected with TMB solution that is stopped with […]. Absorption was measured at 450 nm. Candidate peptides that show a high exchange yield (preferably higher than 50%, most preferred higher than 75%) are generally preferred for a generation and production of antibodies or fragments thereof, and/or T cell receptors or fragments thereof, as they show sufficient avidity to the MHC molecules and prevent dissociation of the MHC complexes.

Molecule	Wells positive [%] [1]	Peptide exchange [2]	peptide exchange yield [3] [%]
35 (VIIKGLEEI; listed as Homo sapiens) [compound 35]	+ (<20% = +)	++ (≧20% = ++)	–
157 (ILQDGQFLV; listed as Homo sapiens) [compound 157]	+ (<20% = +)	++ (≧20% = ++)	–
89 (SLAETIFIV; listed as Homo sapiens) [compound 89]	+ (<20% = +)	+++ (≧50 = +++)	–
261 (GLAALAVHL; listed as Homo sapiens) [compound 261]	++ (20%-49% = ++)	+++ (≧50 = +++)	–
121 (ALYVQAPTV; listed as Homo sapiens) [compound 121]	+ (<20% = +)	++ (≧20% = ++)	–
253 (KLLAVIHEL; listed as Homo sapiens) [compound 253]	++ (20%-49% = ++)	+++ (≧50 = +++)	–
254 (ALGDKFLLRV; listed as Homo sapiens) [compound 254]	+ (<20% = +)	++ (≧20% = ++)	–
11 (LLDPKTIFL; listed as Homo sapiens) [compound 11]	++ (20%-49% = ++)	+++ (≧50 = +++)	–
267 (YLLDMPLWYL; listed as Homo sapiens) [compound 267]	+ (<20% = +)	+++ (≧50 = +++)	–
14 (YTFSGDVQL; listed as Homo sapiens) [compound 14]	+ (<20% = +)	+++ (≧50 = +++)	–
77 (ALYGNVQQV; listed as Homo sapiens) [compound 77]	+ (<20% = +)	+++ (≧50 = +++)	–
275 (AVPPPPSSV; listed as Homo sapiens) [compound 275]	++ (20%-49% = ++)	++ (≧20% = ++)	–
255 (FLMKNSDLYGA; listed as Homo sapiens) [compound 255]	+ (<20% = +)	+++ (≧50 = +++)	–
66 (AMFPDTIPRV; listed as Homo sapiens) [compound 66]	+ (<20% = +)	++ (≧20% = ++)	–
4 (VLFGELPAL; listed as Homo sapiens) [compound 4]	+ (<20% = +)	+++ (≧50 = +++)	–
233 (SLFESLEYL; listed as Homo sapiens) [compound 233]	+ (<20% = +)	+++ (≧50 = +++)	–
263 (SIIEYLPTL; listed as Homo sapiens) [compound 263]	+ (<20% = +)	+++ (≧50 = +++)	–
251 (LLWGNLPEI; listed as Homo sapiens) [compound 251]	++ (20%-49% = ++)	+++ (≧50 = +++)	–
248 (VLMQDSRLYL; listed as Homo sapiens) [compound 248]	++ (20%-49% = ++)	+++ (≧50 = +++)	–

Molecule	Wells positive [%] [1]	Peptide exchange [2]	peptide exchange yield [3] [%]
166 (LLGDSSFFL; listed as Homo sapiens) [compound 166]	++ (20%-49% = ++)	+++ (≧50 = +++)	–
260 (ALNESLVEC; listed as Homo sapiens) [compound 260]	+ (<20% = +)	+++ (≧50 = +++)	–
234 (VLLNEILEQV; listed as Homo sapiens) [compound 234]	++ (20%-49% = ++)	++++ (≧75% = ++++)	–
27 (GLLGKVTSV; listed as Homo sapiens) [compound 27]	+ (<20% = +)	+++ (≧50 = +++)	–
92 (RLFEEVLGV; listed as Homo sapiens) [compound 92]	++ (20%-49% = ++)	++++ (≧75% = ++++)	–
101 (SLLEVNEASSV; listed as Homo sapiens) [compound 101]	+ (<20% = +)	+++ (≧50 = +++)	–
257 (KLIDHQGLYL; listed as Homo sapiens) [compound 257]	+ (<20% = +)	+++ (≧50 = +++)	–
50 (ILLSVLHQL; listed as Homo sapiens) [compound 50]	+ (<20% = +)	+++ (≧50 = +++)	–
7 (ALLQALMEL; listed as Homo sapiens) [compound 7]	++ (20%-49% = ++)	+++ (≧50 = +++)	–
9 (SLITGQDLLSV; listed as Homo sapiens) [compound 9]	+ (<20% = +)	+++ (≧50 = +++)	–
242 (KLQEEIPVL; listed as Homo sapiens) [compound 242]	+ (<20% = +)	+++ (≧50 = +++)	–
B1	–	–	≥ 75
B2	–	–	≥ 75
B3	–	–	≥ 75
B4	–	–	≥ 75
B5	–	–	≥ 75
B6	–	–	≥ 75
B7	–	–	≥ 75
